The values below come from PMC1964548, “Structural and Functional Analyses of Five Conserved Positively Charged Residues in the L1 and N-Terminal DNA Binding Motifs of Archaeal RadA Protein” (PLoS ONE, 2007).

The data set concerns the molecule itself. Description: crystal structure; hanging drop vapor diffusion; SsoRadA 24 mg/ml in 30 mM Tris-HCl pH 8.0; reservoir 100 mM KCl, 25 mM MgCl2, 15% isopropanol, 50 mM sodium cacodylate pH 6.0; space group P3_(1), 1.93 Å; 3_(1) overwound right-handed filament.

B1: Sulfolobus solfataricus RadA (natural protein, UniProt Q55075 1-324, looked up)
chain: MSNEVEQKKNIKTINDLPGISQTVINKLIEAGYSSLETLAVASPQDLSVAAGIPLSTAQKIIKEARDALDIRFKTALEVKKERMNVKKISTGSQALDGLLAGGIETRTMTEFFGEFGSGKTQLCHQLSVNVQLPPEKGGLSGKAVYIDTEGTFRWERIENMAKALGLDIDNVMNNIYYIRAINTDHQIAIVDDLQELVSKDPSIKLIVVDSVTSHFRAEYPGRENLAVRQQKLNKHLHQLTRLAEVYDIAVIITNQVMARPDMFYGDPTVAVGGHTLYHVPGIRIQLKKSRGNRRIARVVDAPHLPEGEVVFALTEEGIRDAEE
notes: RadA of Sulfolobus solfataricus; Forms a helical filament in the crystal (three protomers per turn, 98 Å pitch; three protomers in the asymmetric unit, each belonging to a filament of its own); also called SsoRadA; wild-type SsoRadA; source: expressed and purified as described previously [16]
For the protein B1, the binding result is “binds”.
